Measured values: US12295997B2, “Prostate neoantigens and their uses” (Janssen Biotech, Inc., priority 2020, dated 2025)

B1: P19 (peptide, listed as Homo sapiens)
chain: WTPIPVLTRWPLPHPPPWRRATSCRMARSSPSATSGSSVRRRCSSLPSWVWNLAASTRPRSTPS

Assays:
Assay in all cases: In vitro binding of neoantigens to class I MHC (UV peptide exchange, HLA class I ELISA)
Settings in all cases: 100% = same binding as positive control peptide
HLA-A*01:01 = HLA-A*01:01 (Homo sapiens, UniProt P04439, A114D/A174V/A182V/D101N/D185E/E176A/E190D/L180R/Q94H/R68K/S129P/T187R/V100A/V91M/W191G)
Method: (§1) The 9 mer peptides identified by bioinformatics analysis were analyzed for their binding propensities to 6 common HLA class I alleles (HLA-A*01:01, A*02:01, A*03:01, A*24:02, B*07:02, B*08:01). The principle of the method is briefly described below and consists of two parts, one involving exchange of peptide with a positive control induced by Ultraviolet (UV) radiation, and the second is an enzyme immunoassay to detect stable HLA-peptide and empty HLA complexes.
(§2) HLA-bound peptides are critical for the stability of the HLA complex. A conditional HLA class I complex was stabilized by an UV-labile peptide utilizing a different peptide (Pos) for each HLA (Pos: HLA-A*01:01: […](SEQ ID NO: 409), HLA-A*02:01: […] (SEQ ID NO: 410), HLA-A*03:01: […] (SEQ ID NO: 411), HLA-A*24:02: […] (SEQ ID NO: 412), HLA-B*07:02: […] (SEQ ID NO: 413), HLA-B*08:01: […] (SEQ ID NO: 414), which could be cleaved by UV irradiation when bound to the HLA molecule. Upon cleavage, the resulting peptide fragments dissociated from the HLA class I complex since their length was insufficient to bind stably to HLA. Under the conditions in which peptide cleavage was performed (neutral pH, on melting ice), the peptide-free HLA complex remained stable.
(§3) The exchange efficiency between the peptide of interest and Pos was analyzed using an HLA class I ELISA. The combined technologies allowed the identification of ligands for an HLA molecule of interest which are potentially immunogenic.
(§4) Exchange control peptide Pos was a high affinity binder to the relevant HLA class I allele while exchange control peptide Neg was a non-binder. The UV control represented UV-irradiation of conditional HLA class I complex in the absence of a rescue peptide.
(§5) The HLA class I ELISA is an enzyme immunoassay based on the detection of beta2-microglobulin (B2M) of (peptide-stabilized) HLA class I complexes. To this end streptavidin was bound onto polystyrene microtiter wells. After washing and blocking, HLA complex present in exchange reaction mixtures or ELISA controls was captured by the streptavidin on the microtiter plate via its biotinylated heavy chain. Non-bound material was removed by washing. Subsequently, horseradish peroxidase (HRP)-conjugated antibody to human B2M was added. The HRP-conjugated antibody binds only to an intact HLA complex present in the microtiter well because unsuccessful peptide exchange results in disintegration of the original UV-sensitive HLA complex upon UV illumination. In the latter case B2M was removed during the washing step. After removal of non-bound HRP conjugate by washing, a substrate solution was added to the wells. A coloured product formed in proportion to the amount of intact HLA complex present in the samples. After the reaction was terminated by the addition of a stop solution, absorbance was measured in a microtiter plate reader. The absorbance was normalized to the absorbance of an exchange control peptide (represents 100%). Suboptimal HLA binding of peptides with a moderate to low affinity for HLA class I molecules can also be detected by this ELISA technique (Rodenko, B et al. (2006) Nature Protocols 1: 1120-32).
(§6) Peptides that had 10% or greater exchange efficiency in one of the 6 HLA alleles were considered for further immunogenicity testing and analysis.
(§7) Binding of select neoepitopes to HLA-A*01:01, HLA-A*02:01, HLA-A*03:01, HLAA*24:02, HLAAB*07:02 and HLA-B*08:01 was evaluated using the assay described in Example 1. […] As a criterion for further evaluation, peptides with an exchange rate of at least 10% with the corresponding Pos peptide for at least one of the 6 HLA alleles that we considered for further evaluation. The exchange rates with the allele specific Pos peptides, of the 24 neoantigens so identified are summarized below in Table 17. Higher percentages correspond to stronger binding to the HLA allele. […]

HLA-A*24:02 = HLA-A*24:02 (Homo sapiens, UniProt P04439, D101N/D140Y/D185E/E176V/E190D/F33S/G103R/G107R/I119L/I121M/I306V/K335N/L105A/L180Q/L300P/N151K/N90K/Q86E/Q94H/R106L/R138H/R89G/T104I/T345S/V100E/W191G/Y123F)
Method: as §1, §2, §3, §4, §5, §6, §7

HLA-A*02:01 = HLA-A*02:01 (Homo sapiens, UniProt P04439, D140Y/D185E/D98H/E176V/E277Q/G131W/G231S/I119V/I121R/I166T/I218V/L300P/L318F/N151K/N90K/P208A/P217A/Q86G/Q94H/R138H/R169H/T345S)
Method: as §1, §2, §3, §4, §5, §6, §7

HLA-B*08:01 = HLA-B*08:01 (Homo sapiens, UniProt P01889, A93T/A95T/D138N/E176V/E187T/K202T/Q94N/R180D/S35A/V36M/Y33D/Y91F)
Method: as §1, §2, §3, §4, §5, §6, §7

| Molecule | Exchange rate with allele specific Pos peptide, HLA-A*01:01 (HLA-A*01:01) [%] | Exchange rate with allele specific Pos peptide, HLA-A*24:02 (HLA-A*24:02) [%] | Exchange rate with allele specific Pos peptide, HLA-A*02:01 (HLA-A*02:01) [%] | Exchange rate with allele specific Pos peptide, HLA-B*08:01 (HLA-B*08:01) [%] |
| --- | --- | --- | --- | --- |
| P60 (CYLRRQKRLKCEKQPGA; listed as Homo sapiens) [Peptide P60] | 3.1 | 0.9 | 7.9 | 10.2 |
| YEAGMTLGEKFRVGNCKHLKMTRP (listed as Homo sapiens) [Neoantigen P82] | 1.5 | −0.1 | 6.3 | 1.4 |
| P98: neoantigen 9 mer fragment used for PBMC stimulation (FIG. 5D) (IVWWCPMSR; listed as Homo sapiens) [Neoantigen P98] | 2.5 | −0.1 | 7.9 | 2.4 |
| P56 (PKSEVRAKCKFSILNAK; listed as Homo sapiens) [Peptide P56] | 2.6 | 0.5 | 8.4 | 38 |
| P46 (DDRNTFDIVWWCPMSRLRLALTVPPSTTTTCVTVPAWAA; listed as Homo sapiens) [Peptide P46] | 2.4 | −0.4 | 14.4 | 14.5 |
| P73 (DSSGNLLERNSFEVRV; listed as Homo sapiens) [Peptide P73] | 2.1 | 0.5 | 89.2 | 2.6 |
| P97 (GYLRMQGLMAQRLLLR; listed as Homo sapiens) [Peptide P97] | 2.5 | 0.1 | 4.6 | 2.7 |
| YEAGMTLGGKILFFLFLLLPLSPFSLIF (listed as Homo sapiens) [Neoantigen P87] | 1.1 | 0.2 | 64 | 3.1 |
| SLYHREKQLIAMDSAI (listed as Homo sapiens) [Neoantigen P22] | 4.4 | 0 | 46.9 | 3.9 |
| P58 (MMAEIISVHVPKILSGK; listed as Homo sapiens) [Peptide P58] | 2.5 | 0.2 | 11.8 | 5.3 |
| P61 (MFENGCYLGRQKRFKCE; listed as Homo sapiens) [Peptide P61] | 1.7 | 90.3 | 5.8 | 3.6 |
| B1 | 5.2 | 0.1 | 8.2 | 14.5 |
